Substitutions are numbered along the chain they refer to.

One assay deals with T1, human MAGEA3 (human, UniProt P43357 1-314).
T1 construct: whole, on cells; FFPE cell pellets
As to the kind of experiment: IHC, FFPE CHO cells transfected with human MAGEA3. How it is done:
(§1) FFPE samples were sectioned at 4 μm and mounted on positive charged glass slides. After mounting, paraffin sections were air-dried at room temperature. FFPE TMA samples were received as freshly sectioned and mounted on glass slides. The fully automated IHC assay was performed on a Discovery Ultra Stainer (Ventana Medical Systems, Tucson, AZ) using Ventana Anti-Rabbit HQ (cat #760-4815), Ventana Anti-HQ HRP (cat #760-4820), and Ventana Antibody Diluent with Casein (cat #760-219) (Ventana Medical Systems, Tucson, AZ). The slides were baked on the Discovery Ultra Stainer at 60° C. for 8 minutes, de-paraffinized with Ventana Discovery wash (cat #950-510) for 3 cycles (8 minutes each) at 69° C., and underwent cell conditioning (target retrieval) at 95° C. for 16 minutes (for cell arrays) or 32 minutes (tissues or TMAs) in CC1 buffer (cat #950-500). Following this, slides were incubated with Background Sniper (cat #BS966M, Biocare Medical, Pacheco, CA) in a Ventana Option Prep kit (cat #771-751) for 28 minutes, incubated with CM inhibitor (a part of the Ventana DAB kit cat #760-159) for 12 minutes, and incubated for 1 h at RT with MAGE-B2 antibody diluted with Ventana diluent with Casein in a Ventana Prep kit (cat #770-001) (working concentration at 0.1 μg/ml for cell pellet, or 1-5 ug/ml for tissues) or with a matched concentration of isotype control Rabbit IgG1 antibody. Following this, slides were incubated with the Ventana Anti-Rabbit HQ (cat #760-4815) for 28 minutes at RT, Ventana Anti-HQ HRP (cat #760-4820) for 28 minutes at RT, and signals detected with Ventana DAB chromogen kit (cat #760-159) for 5 minutes at RT. Slides were counterstained with Ventana Hematoxylin II (cat #5266726001) for 8 minutes and Ventana Bluing reagent (cat #526676900) for 4 minutes. Slides were coverslipped and digitized using an Aperio AT2 scanner (Leica Biosystems Inc, Buffalo Grove, IL).

The next assay deals with T2, human MAGEB10 (human, UniProt Q96LZ2 1-347).
T2 construct: whole, on cells; FFPE cell pellets
T2 sequence (looked up): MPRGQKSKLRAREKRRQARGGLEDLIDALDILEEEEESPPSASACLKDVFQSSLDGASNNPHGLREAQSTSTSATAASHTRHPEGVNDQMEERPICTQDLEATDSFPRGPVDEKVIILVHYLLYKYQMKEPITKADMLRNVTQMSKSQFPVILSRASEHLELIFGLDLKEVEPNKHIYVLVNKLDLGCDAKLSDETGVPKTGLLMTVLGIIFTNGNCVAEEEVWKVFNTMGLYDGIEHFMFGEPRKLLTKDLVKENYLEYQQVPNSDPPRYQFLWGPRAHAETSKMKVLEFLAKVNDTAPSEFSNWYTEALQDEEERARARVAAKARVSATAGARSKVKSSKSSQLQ
As to the kind of experiment: IHC, FFPE CHO cells transfected with human MAGEB10.
Excerpt: Negative control cells included parental Chinese hamster ovary (CHO) cells, CHO cells stably transfected with mCherry Vector Control (minus Myc/DDK tags), CHO cells stably transfected with mCherry-human DCAF4L2 (plus Myc/DDK tags). The cross-reactivity control cells included CHO cells transfected with mCherry Vector Control (plus Myc/DDK tags) with one of the human MAGE-B or MAGE-A family members (MAGEA1, MAGEA2, MAGEA3, MAGEA4, MAGEA5, MAGEA6, MAGEA8, MAGEA9, MAGEA11, MAGEA12, MAGEB1, MAGEB3, MAGEB4, MAGEB5, MAGEB6, MAGEB10, MAGEB16, MAGEB17, MAGEB18). Positive control cell lines included CHO cells transfected with mCherry Vector (plus Myc/DDK tags) with human MAGE-B2 or CHO cells transfected with mCherry Vector (open reading frame (ORF); minus Myc/DDK tags) with human MAGEB2, and thirteen human cancer cell lines with known endogenous RNA expression level of MAGEB2 (U266B1, T98G, KMM-1, U20S, CFPAC-1, SCaBER, UACC-257, CFPAC-1, VMRC-LCD, NCI-H1703, UM-UC-3, NCI-H1395, NCIH82).
as §1, with “antibody.” for “antibody. Following this, slides were incubated with the Ventana Anti-Rabbit HQ (cat #760-4815) for 28 minutes at RT, Ventana Anti-HQ HRP (cat #760-4820) for 28 minutes at RT, and signals detected with Ventana DAB chromogen kit (cat #760-159) for 5 minutes at RT. Slides were counterstained with Ventana Hematoxylin II (cat #5266726001) for 8 minutes and Ventana Bluing reagent (cat #526676900) for 4 minutes. Slides were coverslipped and digitized using an Aperio AT2 scanner (Leica Biosystems Inc, Buffalo Grove, IL).”

Another assay has as its target T3, human MAGEA2 (human, UniProt P43356 1-314).
T3 construct: whole, on cells; FFPE cell pellets
In words: IHC, FFPE CHO cells transfected with human MAGEA2. The method, then: as §1

Assay [1] concerns the target T4, Human MAGEB2 (Melanoma-associated antigen B2) (human, UniProt O15479 1-319).
T4 construct: Intracellular antigen detected by IHC in FFPE material: CHO cells transfected with human MAGEB2 (mCherry vector with Myc/DDK tags, or ORF without tags)
T4 sequence: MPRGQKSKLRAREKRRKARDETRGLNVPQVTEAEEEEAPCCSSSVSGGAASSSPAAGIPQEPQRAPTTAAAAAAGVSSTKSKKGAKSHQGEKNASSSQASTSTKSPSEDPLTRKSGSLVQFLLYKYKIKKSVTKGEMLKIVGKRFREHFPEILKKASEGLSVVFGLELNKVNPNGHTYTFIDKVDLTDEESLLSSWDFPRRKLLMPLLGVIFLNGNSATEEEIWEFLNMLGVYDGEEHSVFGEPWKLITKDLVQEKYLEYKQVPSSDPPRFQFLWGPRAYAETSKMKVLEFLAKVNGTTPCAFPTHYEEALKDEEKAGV
As to the kind of experiment: IHC on FFPE VMRC-LCD cells (endogenous MAGEB2). The method, then: as §1

T3 sequence (P43356 whole entry): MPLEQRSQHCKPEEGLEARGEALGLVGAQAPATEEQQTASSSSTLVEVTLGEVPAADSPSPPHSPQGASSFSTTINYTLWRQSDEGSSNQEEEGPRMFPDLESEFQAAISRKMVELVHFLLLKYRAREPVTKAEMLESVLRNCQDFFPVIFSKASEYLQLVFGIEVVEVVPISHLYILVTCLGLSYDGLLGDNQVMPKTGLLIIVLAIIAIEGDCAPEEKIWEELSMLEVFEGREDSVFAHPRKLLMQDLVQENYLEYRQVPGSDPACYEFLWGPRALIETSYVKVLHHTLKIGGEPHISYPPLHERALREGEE
T1 sequence (P43357 whole entry): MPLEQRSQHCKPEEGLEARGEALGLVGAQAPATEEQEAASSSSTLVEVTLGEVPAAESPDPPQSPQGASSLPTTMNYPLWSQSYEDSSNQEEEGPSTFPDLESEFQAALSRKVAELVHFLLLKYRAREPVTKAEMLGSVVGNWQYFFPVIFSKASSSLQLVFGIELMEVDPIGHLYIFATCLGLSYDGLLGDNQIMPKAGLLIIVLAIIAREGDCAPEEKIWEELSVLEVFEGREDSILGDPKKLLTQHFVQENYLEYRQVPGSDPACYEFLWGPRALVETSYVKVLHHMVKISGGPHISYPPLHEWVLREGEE

B1: 1I14 (antibody, V domains shown)
VH: QSVEESGGRLVTPGTPLTLTCTISGFSLSSYAMSWVRQAPGKGLEWIGSIGGGGSAVYASWAKGRFTISKTSTTVDLRITSPTTEDTAMYFCGRGFYSIDLWGPGTLVTVSS
VL: DVVMTQTPASVEATVGGTVTIKCQSSQSVYDNNALAWYQQNAGQRPRLLIYGASTLASGVPSRFSASGSGTEFTLTISDLECADAATYYCQCTYYVSSYQNDFGGGTEVVVKG
notes: also called MAGE-B2 (1i14)
With B1, the binding result in the assay with human MAGEA3, with human MAGEB10 and with human MAGEA2 was “no binding (tested: 0.1 µg/ml)” throughout. In addition, the “IHC % Frequency” value in assay [1] is 0%. For the same molecule, in assay [1], the “IHC Intensity” value amounted to 0.

B2: 1C3 (antibody, V domains shown)
VH: QSLEESGGGLVQPEGSLTLTCTAFGVTLTNYYICWVRQAPGKGLEWVGCIDNANGRTYYASWAKGRFTISKTSSTTGTLQMTSLTAADTATYFCARSLATPLWGPGTLVTVSS
VL: DIVMTQTPSSVEAAVGGTVTIKCQASQNISSYLAWYQQKPGQPPKLLIYRASTLASGVPSRFKGSGSGTQFTLTISDLECADAATYYCQSYDDSRSSNFFYAFGGGTEVVVKG
notes: also called MAGE-B2 (IC3); anti-MAGEB2 antibody 1C3
As to B2, the binding result in the assay with human MAGEA3, in the assay with human MAGEB10 and in the assay with human MAGEA2 was “no binding (tested: 0.1 µg/ml)” in each case. Besides, in assay [1], the “IHC % Frequency” value is 0%. For the same molecule, the “IHC Intensity” value in assay [1] was determined as 0.

B3: 4G17 (antibody, IgG1, V domains shown)
VH: B2 VH with F24S, T29S, V47I, A53V
VL: DIVMTQTPASVEAAVGGTVTIKCQASQNIDSYLAWYQQKPGQPPKLLIYRASTLASGVPSRFKGSGSGTEFTLTISDLECADAATYYCQSYDDSRSSSFFYGFGGGTEVVVK
notes: Rabbit monoclonal IgG1; Tested as supernatant and as small batch purified antibody; also called MAGE-B2 (4G17); anti-MAGEB2 antibody 4G17
For the molecule B3, the binding result with human MAGEA3, with human MAGEB10 and with human MAGEA2 was “no binding (tested: 0.1 µg/ml)” in each case. In assay [1], the “IHC % Frequency” value came out at 0%. Besides, the “IHC Intensity” value in assay [1] was 0.

B4: 1J15 (antibody, IgG1, V domains shown)
VH: B2 VH with V26F, T29N, V47I, G48A, G77V, A99S
VL: B3 VL with N28S, D30S, A34S, K63R, E70Q, R95S, S96D, S97N, S98N, K112R
notes: Rabbit monoclonal IgG1; Tested as supernatant and as small batch purified antibody; also called MAGE-B2 (IJ15); anti-MAGEB2 antibody 1J15
Regarding B4, the binding result with human MAGEA3, with human MAGEB10 and with human MAGEA2 was “no binding (tested: 0.1 µg/ml)” in each case. For the same molecule, the “IHC % Frequency” value in assay [1] came to 0%. In assay [1], the “IHC Intensity” value stood at 0.
